{"source": "paper PMC3223566", "about": "“The Initiation Factor TFE and the Elongation Factor Spt4/5 Compete for the RNAP Clamp during Transcription Initiation and Elongation” (Molecular Cell, 2011)", "binders": {"B1": {"name": "TFE labeled with Cy3B at residue 44 (WH domain) (natural protein)", "chain": "MLNDPLVQEVLFNIFEGDEKGFEVIDVLLEKGETTEEEIAKELFVKLNVVRKLLYKLYDARLVDYKRWKDEDTNWYSYTWLPTLEKLPYVVKKKINELIKDLEKKLEFEKNNMFFFCPNCNVRFTFEEAMDYGFSCPGCGNMLQEFDNSELIKDLEEQIKFLKEELKNNPFLK", "modifications": "p-azido phenylalanine (APA) at position 44, derivatized with Cy3B"}}, "key": {"[1]": {"target": "T1, RNAPΔRpo4/7, ten-subunit RNAP subassembly lacking Rpo4/7 (M. jannaschii, UniProt Q58443 1-78)", "T1 construct": "RNA polymerase subunit Rpo1′, M. jannaschii; holds the clamp coiled-coil motif; RNA polymerase subunit Rpo2″, M. jannaschii; RNA polymerase subunit Rpo5, M. jannaschii; As m6 without the chains Rpo4 and Rpo7; source: recombinant subunits, reconstituted in vitro without Rpo4/7; copies: + + + + + + + + +", "experiment": "fluorescence polarisation; fluorescence anisotropy; RNAP added to labeled TFE^44*Cy3B (50 nM); apparent dissociation constant by direct fitting of the titration curves", "conditions": "both partners purified"}, "[2]": {"target": "T2, M. jannaschii RNA polymerase, wild type, reconstituted from 12 recombinant subunits (M. jannaschii, UniProt Q58443 1-78; Q57840 1-187)", "T2 construct": "RNA polymerase subunit Rpo1′, M. jannaschii; holds the clamp coiled-coil motif; RNA polymerase subunit Rpo2″, M. jannaschii; RNA polymerase subunit Rpo4 (stalk), M. jannaschii; RNA polymerase subunit Rpo5, M. jannaschii; RNA polymerase subunit Rpo7 (stalk), M. jannaschii; In PIC and TEC experiments the same RNAP stood with DNA, TBP and TFB, or with a DNA/RNA scaffold (see the assay's format); …", "experiment": "fluorescence polarisation; fluorescence anisotropy; RNAP added to labeled TFE^44*Cy3B (50 nM); apparent dissociation constant by direct fitting of the titration curves", "conditions": "both partners purified"}}}
{"binder": "B1", "values": [{"measurement": "Kd", "setting": "[1]", "result": "1700 ± 150", "unit": "nM"}, {"measurement": "Kd", "setting": "[2]", "result": "200 ± 10", "unit": "nM"}]}
